Measurements reported in patent publication US20260248939A1 (SYNAFFIX B V, published 2026).

Experiments:
[1] = molecular target: T1, Human PTK7 (CCK4 protein, ECD, His Tag, Sino Biological) (human, UniProt Q13308 31-704); test: ELISA: His-tagged PTK7 on nickel plate, ADC at 8 µg/mL (Example 25), goat anti-human IgG-HRP, TMB, absorbance at 652 nm, background-corrected
T1 construct: extracellular domain; Bought protein; also called hPTK7; HPTK7; not shown: His tag
T1 sequence (looked up): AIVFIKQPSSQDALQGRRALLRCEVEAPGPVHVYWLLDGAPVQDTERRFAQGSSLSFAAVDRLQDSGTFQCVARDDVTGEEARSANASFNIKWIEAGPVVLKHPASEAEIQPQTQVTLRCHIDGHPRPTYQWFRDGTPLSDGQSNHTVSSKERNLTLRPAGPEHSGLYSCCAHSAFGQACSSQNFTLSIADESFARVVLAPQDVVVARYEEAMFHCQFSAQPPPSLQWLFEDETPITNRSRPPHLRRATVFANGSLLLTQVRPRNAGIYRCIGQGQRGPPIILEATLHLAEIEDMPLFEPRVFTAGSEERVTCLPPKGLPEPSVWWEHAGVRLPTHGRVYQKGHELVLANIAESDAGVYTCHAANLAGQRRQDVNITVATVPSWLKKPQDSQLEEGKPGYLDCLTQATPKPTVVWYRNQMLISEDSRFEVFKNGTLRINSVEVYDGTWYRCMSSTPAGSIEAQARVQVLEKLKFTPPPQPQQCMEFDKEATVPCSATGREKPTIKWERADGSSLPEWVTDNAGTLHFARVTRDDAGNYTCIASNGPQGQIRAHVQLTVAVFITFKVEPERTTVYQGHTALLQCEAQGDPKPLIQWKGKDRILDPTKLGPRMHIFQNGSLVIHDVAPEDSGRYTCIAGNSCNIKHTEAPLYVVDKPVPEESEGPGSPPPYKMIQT

[2] = molecular target: T2, Rat PTK7 (His Tag, Acro Biosystems) (rat, UniProt A0A8I6ALM9 40-713); test: as above
T2 construct: Bought protein; also called rPTK7; not shown: His tag

[3] = molecular target: T1, Human PTK7 (CCK4 protein, ECD, His Tag, …); test: ELISA: His-tagged hPTK7 on nickel plate, ADC at 8 µg/mL (Example 25), goat anti-human IgG-HRP, TMB, absorbance at 652 nm, background-corrected
[4] = molecular target: T3, cynomolgus PTK7 (CCK4 protein, ECD, His Tag, Sino Biological) (cynomolgus, UniProt A0A2K5VNI5 39-712); test: ELISA: His-tagged PTK7 on nickel plate, ADC at 8 µg/mL (Example 25), goat anti-human IgG-HRP, TMB, absorbance at 652 nm, background-corrected
T3 construct: extracellular domain; Bought protein; also called cPTK7; cyno PTK7; not shown: His tag
T3 sequence: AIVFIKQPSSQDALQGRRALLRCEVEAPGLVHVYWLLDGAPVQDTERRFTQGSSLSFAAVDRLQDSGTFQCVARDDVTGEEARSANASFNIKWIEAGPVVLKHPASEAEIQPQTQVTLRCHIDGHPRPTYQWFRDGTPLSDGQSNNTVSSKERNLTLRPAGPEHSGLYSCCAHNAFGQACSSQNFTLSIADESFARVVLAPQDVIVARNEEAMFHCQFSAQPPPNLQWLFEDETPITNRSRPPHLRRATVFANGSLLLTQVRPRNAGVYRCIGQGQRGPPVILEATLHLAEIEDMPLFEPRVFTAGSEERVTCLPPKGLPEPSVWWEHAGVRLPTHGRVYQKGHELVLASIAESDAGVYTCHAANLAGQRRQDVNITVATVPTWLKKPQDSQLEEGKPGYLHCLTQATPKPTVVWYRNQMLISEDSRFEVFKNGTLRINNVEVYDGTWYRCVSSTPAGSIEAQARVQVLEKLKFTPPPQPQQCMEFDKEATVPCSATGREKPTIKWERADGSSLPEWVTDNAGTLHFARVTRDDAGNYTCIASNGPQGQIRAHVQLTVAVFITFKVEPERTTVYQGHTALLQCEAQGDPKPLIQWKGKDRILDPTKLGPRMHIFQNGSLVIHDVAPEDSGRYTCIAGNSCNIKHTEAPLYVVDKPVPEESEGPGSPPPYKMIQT

Binder	binding result [1]	binding result [2]	binding result [3]	binding result [4]
4D5-3 (antibody, human IgG1, kappa, V domains shown, heavy-chain N-glycan trimmed to core GlcNAc, extended with 6-N3-GalNAc and clicked to BCN-HS-PEG2-HS-(va-PAB-Ex)2 (linker-drug 3, exatecan); average DAR 3.91) VH: QVQLVESGGGVVQPGRSLRLSCAASGFTFSSYAFHWVRQAPGKGLEWVAVISYDGSIKYYADSVKGRFTISRDNSKNTLYLQMNSLRAEDTAVYYCARTYYFDYWGQGTLVTVSS VL: EIVLTQSPDFQSVTPKEKVTITCRASQSIGSSLHWYQQKPDQSPKLLIKYASQSFSGVPSRFSGSGSGTDFTLTINSLEAEDAAAYYCHQSSSLPITFGQGTRLEIKR	binds	no binding (tested: 8 µg/mL)		
B12-3 (antibody, human IgG1, kappa, V domains shown, also called B12 (VI) conjugated with linker-drug 3; isotype control ADC) VH: QVQLVQSGAEVKKPGASVKVSCQASGYRFSNFVIHWVRQAPGQRFEWMGWINPYNGNKEFSAKFQDRVTFTADTSANTAYMELRSLRSADTAVYYCARVGPYSWDDSPQDNYYMDVWGKGTTVIVSS VL: EIVLTQSPGTLSLSPGERATFSCRSSHSIRSRRVAWYQHKPGQAPRLVIHGVSNRASGISDRFSGSGSGTDFTLTITRVEPEDFALYYCQVYGASSYTFGQGTKLERKR			no binding (tested: 8 µg/mL)	
12C6a-3 (antibody, human IgG1, kappa, V domains shown, heavy-chain N-glycan trimmed to core GlcNAc, extended with 6-N3-GalNAc and clicked to BCN-HS-PEG2-HS-(va-PAB-Ex)2 (linker-drug 3, exatecan); average DAR 3.90, Antibody-drug conjugate of IgG 12C6a (V)) VH: VQLVQSGGGLVHPGGSLRLSCAGSGFTFSTYLMYWVRQAPGKTLEWVSAIGSGGDTYYADSVKGRFTISRDNAKNSLYLQMNSLRAEDMAVYYCARGLGYWGQGTLVTVSS VL: DIQMTQSPSSLSASVGDRVTITCRASQGISSWLAWYQQKPEKAPKSLIYAASSLQSGVPSRFSGSGSGTDFTLTISSLQPEDFATYYCQQYNSYPYTFGQGTKLEIKR	no binding (tested: 8 µg/mL)	no binding (tested: 8 µg/mL)		no binding (tested: 8 µg/mL)
